# In article PMC4552281:
# Target: FcBP-encapsulin (Fc-binding peptide inserted encapsulin protein cage nanoparticle) (Thermotoga maritima) (UniProt Q9WZP2)
# Test: SEC; elution of purified FcBP-encapsulin compared with encapsulin
substance,measurement,value
FcBP-encapsulin (Fc-binding peptide inserted encapsulin protein cage nanoparticle) (from UniProt Q9WZP2 1-138; Q9WZP2 139-265) (designed binder),stoichiometry N,60
